Data on three substances can be found in PMC10012886.

Test [1] addresses fusion protein of mouse Fc with human PD-1 extracellular domain (PD1-mFc) (Homo sapiens (Human).) (UniProt Q15116). Briefly: ELISA.
The target in test [2] is fusion protein of human Fc with human PD-1 extracellular domain (PD1-hFc) (human) (UniProt Q15116). Briefly: ELISA.
Test [3] concerns the target human PD-1 and CTLA-4 mixture (mol/mol: 1/1) immobilized on AMC sensors (human). Briefly: BLI.
For test [4], the target named is human PD-1 on 293 T-PD1 cells (human) (UniProt Q15116). Briefly: flow cytometry on cells.
The target of test [5] is human CTLA-4 on 293 T-CTLA4 cells (human) (UniProt P16410). Kind of test: flow cytometry on cells.
UniProt P16410, sequence (P16410 36-223): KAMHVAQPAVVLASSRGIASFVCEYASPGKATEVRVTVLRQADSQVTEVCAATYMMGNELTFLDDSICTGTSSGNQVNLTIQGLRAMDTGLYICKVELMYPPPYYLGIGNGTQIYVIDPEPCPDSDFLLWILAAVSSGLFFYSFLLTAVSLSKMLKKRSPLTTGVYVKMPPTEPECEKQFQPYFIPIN
The next test deals with Cadonilimab (hG1WT). Kind of test: BLI.
The target in test [6] is FcγRIIIa_V158 (FcγRIIIa 158 V alleles). Kind of test: BLI.
A further test deals with FcγRIa (UniProt P12314). Briefly: BLI.
UniProt P12314, sequence (P12314 16-374): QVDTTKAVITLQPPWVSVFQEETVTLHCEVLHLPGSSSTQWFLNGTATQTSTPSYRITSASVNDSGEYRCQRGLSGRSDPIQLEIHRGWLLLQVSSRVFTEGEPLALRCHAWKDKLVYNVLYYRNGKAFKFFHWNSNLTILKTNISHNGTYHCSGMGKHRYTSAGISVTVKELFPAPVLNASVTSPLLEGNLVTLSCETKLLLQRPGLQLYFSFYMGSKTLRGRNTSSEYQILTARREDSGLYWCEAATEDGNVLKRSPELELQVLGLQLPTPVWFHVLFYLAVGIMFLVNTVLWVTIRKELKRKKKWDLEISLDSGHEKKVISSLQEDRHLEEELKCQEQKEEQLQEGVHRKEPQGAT
Test [7] addresses FcγRIIIa_F158 (FcγRIIIa 158 F alleles) (UniProt P08637). Briefly: BLI.
UniProt P08637, sequence (P08637 17-254): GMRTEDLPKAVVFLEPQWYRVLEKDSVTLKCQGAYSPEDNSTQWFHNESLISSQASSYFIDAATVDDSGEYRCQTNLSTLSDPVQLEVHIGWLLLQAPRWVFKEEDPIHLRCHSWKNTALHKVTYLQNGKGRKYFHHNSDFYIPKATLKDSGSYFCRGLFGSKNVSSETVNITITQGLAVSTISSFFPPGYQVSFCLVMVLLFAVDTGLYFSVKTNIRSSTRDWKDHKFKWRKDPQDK

Values joined by “and” are separate entries in the source; they are usually repeats but may differ in a detail not shown here. Equal entries are not always repeated.

As for Cadonilimab (bispecific antibody), the EC50 in test [1] is 0.051 nM; in test [2] it was 0.792 nM and 1.43 nM; in [4], 1.81 nM and 2.62 nM; in test [5], 3.93 nM and 3.09 nM. In addition, in [3], the fold higher binding avidity than with low-density PD-1 was found to be 10 fold.
In the test with Cadonilimab (hG1WT), C1q (complex) displayed a Kd of 2.53 nM, a koff of 0.00517 s⁻¹ and a kon of 2.05e+06 M⁻¹ s⁻¹.
On to “Cadonilimab (hG1WT) (bispecific antibody)”, for which, in test [6], the Kd came to 177 nM, the koff is 0.0214 s⁻¹ and the kon was 121000 M⁻¹ s⁻¹. Besides, in the test with FcγRIa, the Kd came out at 5.92 nM, the koff came to 0.00181 s⁻¹ and the on-rate (kon) came out at 306000 M⁻¹ s⁻¹. In test [7], this substance showed a Kd of 221 nM, a koff of 0.0247 s⁻¹ and a kon of 112000 M⁻¹ s⁻¹.
